Test results as given in paper PMC5829824.

Target: mCherry-tagged human vimentin (human) (UniProt P08670)
Assay: co-IP; mCherry-vimentin or RFP from bEnd.3 cell extracts immunoprecipitated with RFP-trap beads, then incubated with purified InlF-His6; eluates blotted with anti-His6 and anti-RFP; densitometry

Chain of mCherry-tagged human vimentin (human) (P08670 whole entry): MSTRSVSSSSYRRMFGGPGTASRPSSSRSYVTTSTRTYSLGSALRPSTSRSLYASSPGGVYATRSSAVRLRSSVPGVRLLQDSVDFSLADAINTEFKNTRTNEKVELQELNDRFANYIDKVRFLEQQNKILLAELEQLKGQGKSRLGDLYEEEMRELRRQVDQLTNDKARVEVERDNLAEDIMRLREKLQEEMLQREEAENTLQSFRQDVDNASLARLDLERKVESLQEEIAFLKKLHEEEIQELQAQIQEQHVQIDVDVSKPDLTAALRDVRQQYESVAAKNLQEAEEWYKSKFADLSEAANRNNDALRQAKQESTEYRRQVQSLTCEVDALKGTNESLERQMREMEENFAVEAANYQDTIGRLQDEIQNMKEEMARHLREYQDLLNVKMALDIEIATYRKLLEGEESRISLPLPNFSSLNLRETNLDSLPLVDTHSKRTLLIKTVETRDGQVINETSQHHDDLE

With “InlF-His6 (Listeria monocytogenes internalin family surface protein InlF, His6-tagged) (from UniProt O33930 1-821) (natural protein)” the ratio of anti-His to anti-RFP signals (densitometry), fold over the RFP control was greater than 5 fold.
